{"source": "patent US10234390", "key": {"[1]": {"tested_on": "T1, fluorogenic MMP peptide substrate [Dabcyl-Gaba-Pro-Gln-Gly-Leu-Glu(EDANS)-Ala-Lys-NH2]", "T1 sequence": "XXPQGLXAK"}, "[2]": {"molecular_target": "T2, Sortase A substrate Dnp-LPETG-(K-FITC)-NH2", "T2 chain": "LPETGK"}, "[3]": {"molecular_target": "T3, fluorogenic MMP peptide substrate [Dabcyl-Gaba-Pro-Gln-Gly-Leu-Glu(EDANS)-Ala-Lys-NH2] (not fully specified)", "T3 chain": "XXPQGLXAK"}}}
{"molecule": "MMP-9", "values": [{"measurement": "EDANS fluorescence intensity", "setting": "[1]", "result": "The fluorescence intensity of EDANS cleaved by MMP-9 bound with MNP-MMP9Ab"}]}
{"molecule": "Sortase A enzyme (protein) QAKPQIPKDKSKVAGYIEIPDADIKEPVYPGPATPEQLNRGVSFAEENESLDDQNISIAGHTFIDRPNYQFTNLKAAKKGSMVYFKVGNETRKYKMTSIRDVKPTDVGVLDEQKGKDKQLTLITCDDYNEKTGVWEKRKIFVATEVK", "values": [{"measurement": "FITC fluorescence emission (1 µg/mL Sortase A, 30 min)", "setting": "[2]", "result": "the emission of FITC after the Sortase A substrate cleaved by Sortase A enzyme"}, {"measurement": "FITC fluorescence emission at different contact times", "setting": "[2]", "result": "the longer the interaction between Sortase A enzyme and Sortase A substrate the higher emission of the FITC detected ... only until 30 min contact time"}, {"measurement": "FITC fluorescence emission, S. aureus bacterial supernatant (1 h inoculation)", "setting": "[2]", "result": "about 47.26 a.u."}, {"measurement": "FITC fluorescence intensity, 1×10^-4 µg/mL Sortase A in buffer solution", "setting": "[2]", "result": "100.2±22.7", "unit": "a.u."}, {"measurement": "FITC fluorescence intensity, wound fluid spiked with 1×10^-4 µg/mL Sortase A, 30 min", "setting": "[2]", "result": "about 82.34 a.u."}, {"measurement": "FITC fluorescence signal at different Sortase A concentrations", "setting": "[2]", "result": "this sensing platform still had an obvious signal down to fg/mL of Sortase A concentration"}, {"measurement": "increase of FITC fluorescence intensity on spiking the bacterial supernatant with Sortase A enzyme", "setting": "[2]", "result": "increased the fluorescence intensity about 112.19 a.u."}]}
{"molecule": "Recombinant human MMP-1 (R&D Systems), activated with APMA (protein) FVLTEGNPRWEQTHLTYRIENYTPDLPRADVDHAIEKAFQLWSNVTPLTFTKVSEGQADIMISFVRGDHRDNSPFDGPGGNLAHAFQPGPGIGGDAHFDEDERWTNNFREYNLHRVAAHELGHSLGLSHSTDIGALMYPSYTFSGDVQLAQDDIDGIQAIYGRSQNPVQPIGPQTPKACDSKLTFDAITTIRGEVMFFKDRFYMRTNPFYPEVELNFISVFWPQLPNGLEAAYEFADRDEVRFFKGNKYWAVQGQNVLHGYPKDIYSSFGFPRTVKHIDAALSEENTGKTYFFVANKYWRYDEYKRSMDPGYPKMIAHDFPGIGHKVDAVFMKDGFFYFFHGTRQYKFDPKTKRILTLQKANSWFNCRKN", "values": [{"measurement": "EDANS emission at 446.5 nm from peptide-functionalised pSiRM", "setting": "[3]", "result": "emission at 446.5 nm was observed"}, {"measurement": "EDANS emission under confocal microscope (microcontact-printed peptide)", "setting": "[3]", "result": "The lighter colour (blue) is the colour of EDANS emission confirming the cleavage of the MMP substrate"}, {"measurement": "EDANS fluorescence intensity at different incubation times (1.2×10^-7 M MMP-1)", "setting": "[3]", "result": "After 5 min of incubation, a significant fluorescence emission indicating the presence of MMP-1 was already detectable ... then plateaued at 15 min incubation time"}, {"measurement": "limit of detection (EDANS fluorescence after 15 min incubation)", "setting": "[3]", "result": "the calculated LOD was 7.5×10^-19 M"}, {"measurement": "shift of the resonance cavity dip (IRS)", "setting": "[3]", "result": "A small blue shift (Δλ=0.5 nm) observed by IRS after incubation with MMP-1"}]}
